Reference: paper PMC314469, “Protein Interaction Networks by Proteome Peptide Scanning” (PLoS Biology, 2004)
Blank lines part the entries; values can stand above or below the binder they belong to.

What was measured:
[1] = target: T1, amphyphisin SH3 (AMPH_HUMAN), P49418; assay: SPOT array
T1 chain: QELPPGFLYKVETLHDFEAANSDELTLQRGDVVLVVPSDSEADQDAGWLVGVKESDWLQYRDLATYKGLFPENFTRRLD

[2] = target: endophilin SH3 (SH3G2_HUMAN), Q99962; assay: SPOT array

B1: Q16512 357-370 (peptide)
chain: RPPFLSRPARGLYS
- normalised SPOT signal, Boehringer light units (BLU); mean over the file's lines of this peptide [1]: 774
- normalised SPOT signal, Boehringer light units (BLU); mean over the file's lines of this peptide [2]: 1450

B5: O43426 1118-1132 (peptide)
chain: RPAPPQRPPPPSGA
- normalised SPOT signal, Boehringer light units (BLU); mean over the file's lines of this peptide [1]: 1990
- normalised SPOT signal, Boehringer light units (BLU); mean over the file's lines of this peptide [2]: 12200

B6: Q9Y5R2 356-370 (peptide)
chain: RQPRPPRPPLGDRP
- normalised SPOT signal, Boehringer light units (BLU); mean over the file's lines of this peptide [1]: 1470
- normalised SPOT signal, Boehringer light units (BLU); mean over the file's lines of this peptide [2]: 4010

B7: Q8WW30 14-28 (peptide)
chain: RRDPPRRPPRNGYG
- normalised SPOT signal, Boehringer light units (BLU); mean over the file's lines of this peptide [1]: 8150
- normalised SPOT signal, Boehringer light units (BLU); mean over the file's lines of this peptide [2]: 5040

B8: Q9ULK5 32-45 (peptide)
chain: AVGPPKRPQPAALE
- normalised SPOT signal, Boehringer light units (BLU); mean over the file's lines of this peptide [1]: 31.9
- normalised SPOT signal, Boehringer light units (BLU); mean over the file's lines of this peptide [2]: 393

B9: Q16439 323-336 (peptide)
chain: RPHAPGRPARGKVQ
- normalised SPOT signal, Boehringer light units (BLU); mean over the file's lines of this peptide [1]: 3930
- normalised SPOT signal, Boehringer light units (BLU); mean over the file's lines of this peptide [2]: 1270

B10: Q9NR61 553-566 (peptide)
chain: RQLRLRRPDDGSRE
- normalised SPOT signal, Boehringer light units (BLU); mean over the file's lines of this peptide [1]: 39.7
- normalised SPOT signal, Boehringer light units (BLU); mean over the file's lines of this peptide [2]: 61.3

B11: Q8TDZ8 103-117 (peptide)
chain: RPALPGRPPRWLNR
- normalised SPOT signal, Boehringer light units (BLU); mean over the file's lines of this peptide [1]: 16100
- normalised SPOT signal, Boehringer light units (BLU); mean over the file's lines of this peptide [2]: 13400

B12: Q96QG0 344-357 (peptide)
chain: RPRRPRRPGPSDPA
- normalised SPOT signal, Boehringer light units (BLU); mean over the file's lines of this peptide [1]: 594
- normalised SPOT signal, Boehringer light units (BLU); mean over the file's lines of this peptide [2]: 1340

B13: Q9H6G5 120-133 (peptide)
chain: RQHLPERPRRSPLS
- normalised SPOT signal, Boehringer light units (BLU); mean over the file's lines of this peptide [1]: 5990
- normalised SPOT signal, Boehringer light units (BLU); mean over the file's lines of this peptide [2]: 11100

B14: Q9NR56 273-286 (peptide)
chain: AVKSLKRPLEATFD
- normalised SPOT signal, Boehringer light units (BLU); mean over the file's lines of this peptide [1]: 23.6
- normalised SPOT signal, Boehringer light units (BLU); mean over the file's lines of this peptide [2]: 20.3

B15: Q96CZ1 23-36 (peptide)
chain: RPNPLRRPLNRKRA
- normalised SPOT signal, Boehringer light units (BLU); mean over the file's lines of this peptide [1]: 156
- normalised SPOT signal, Boehringer light units (BLU); mean over the file's lines of this peptide [2]: 200

B16: Q14296 184-198 (peptide)
chain: RLRLPPKPPPPLQP
- normalised SPOT signal, Boehringer light units (BLU); mean over the file's lines of this peptide [1]: 896
- normalised SPOT signal, Boehringer light units (BLU); mean over the file's lines of this peptide [2]: 6030

B18: P17600 586-600 (peptide)
chain: RQGPPQKPPGPAGP
- normalised SPOT signal, Boehringer light units (BLU); mean over the file's lines of this peptide [1]: 46.6
- normalised SPOT signal, Boehringer light units (BLU); mean over the file's lines of this peptide [2]: 325

B19: Q9BV18 42-55 (peptide)
chain: RRSRLRRPAVRPTD
- normalised SPOT signal, Boehringer light units (BLU); mean over the file's lines of this peptide [1]: 41.8
- normalised SPOT signal, Boehringer light units (BLU); mean over the file's lines of this peptide [2]: 28.4

B20: O15067 285-298 (peptide)
chain: RPEDPTRPSRFQQQ
- normalised SPOT signal, Boehringer light units (BLU); mean over the file's lines of this peptide [1]: 1830
- normalised SPOT signal, Boehringer light units (BLU); mean over the file's lines of this peptide [2]: 149

B21: Q9BXX0 822-836 (peptide)
chain: RPVLPQRPPEERPP
- normalised SPOT signal, Boehringer light units (BLU); mean over the file's lines of this peptide [1]: 252
- normalised SPOT signal, Boehringer light units (BLU); mean over the file's lines of this peptide [2]: 420

B24: Q9HCU0 92-105 (peptide)
chain: RQSQLQRPLRGFTW
- normalised SPOT signal, Boehringer light units (BLU); mean over the file's lines of this peptide [1]: 1210
- normalised SPOT signal, Boehringer light units (BLU); mean over the file's lines of this peptide [2]: 235

B25: Q96S08 361-374 (peptide)
chain: RNPVLRRPPILEDY
- normalised SPOT signal, Boehringer light units (BLU); mean over the file's lines of this peptide [1]: 29.1
- normalised SPOT signal, Boehringer light units (BLU); mean over the file's lines of this peptide [2]: 15.8

B26: Q8TDP0 171-185 (peptide)
chain: RPTVPARPPATHPR
- normalised SPOT signal, Boehringer light units (BLU); mean over the file's lines of this peptide [1]: 8140
- normalised SPOT signal, Boehringer light units (BLU); mean over the file's lines of this peptide [2]: 14800

B28: P08913 304-317 (peptide)
chain: RPPGPRRPERGPRG
- normalised SPOT signal, Boehringer light units (BLU); mean over the file's lines of this peptide [1]: 13300
- normalised SPOT signal, Boehringer light units (BLU); mean over the file's lines of this peptide [2]: 4970

B30: Q04118 259-272 (peptide)
chain: RPPPPRRPQGPPPP
- normalised SPOT signal, Boehringer light units (BLU); mean over the file's lines of this peptide [1]: 35.7
- normalised SPOT signal, Boehringer light units (BLU); mean over the file's lines of this peptide [2]: 3820

B32: Q15532 247-261 (peptide)
chain: RQIPPYRPPQQGPP
- normalised SPOT signal, Boehringer light units (BLU); mean over the file's lines of this peptide [1]: 170
- normalised SPOT signal, Boehringer light units (BLU); mean over the file's lines of this peptide [2]: 68

B35: O43161 2760-2773 (peptide)
chain: RQQTLPRPMKTLQR
- normalised SPOT signal, Boehringer light units (BLU); mean over the file's lines of this peptide [1]: 79.1
- normalised SPOT signal, Boehringer light units (BLU); mean over the file's lines of this peptide [2]: 67.7

B37: Q96Q34 14-27 (peptide)
chain: RRARPRRPREAPAP
- normalised SPOT signal, Boehringer light units (BLU); mean over the file's lines of this peptide [1]: 35.2
- normalised SPOT signal, Boehringer light units (BLU); mean over the file's lines of this peptide [2]: 144

B38: Q96MS0 257-270 (peptide)
chain: RPSFLRRPVNQVVL
- normalised SPOT signal, Boehringer light units (BLU); mean over the file's lines of this peptide [1]: 43.9
- normalised SPOT signal, Boehringer light units (BLU); mean over the file's lines of this peptide [2]: 171

B39: Q9HCK4 226-239 (peptide)
chain: RPTFLRRPINQVVL
- normalised SPOT signal, Boehringer light units (BLU); mean over the file's lines of this peptide [1]: 169
- normalised SPOT signal, Boehringer light units (BLU); mean over the file's lines of this peptide [2]: 575

B40: Q9Y520 1361-1374 (peptide)
chain: RPSTLRRPAYRDNQ
- normalised SPOT signal, Boehringer light units (BLU); mean over the file's lines of this peptide [1]: 44.5
- normalised SPOT signal, Boehringer light units (BLU); mean over the file's lines of this peptide [2]: 112

Further lines, results first:

- normalised SPOT signal, Boehringer light units (BLU); mean over the file's lines of this peptide [1]: 554
- normalised SPOT signal, Boehringer light units (BLU); mean over the file's lines of this peptide [2]: 5130
B2: P58012 147-161 (peptide)
chain: RMKRPFRPPPAHFQ

- normalised SPOT signal, Boehringer light units (BLU); mean over the file's lines of this peptide [1]: 32.4
- normalised SPOT signal, Boehringer light units (BLU); mean over the file's lines of this peptide [2]: 89
B3: Q92625 451-465 (peptide)
chain: RPPPPAKPPPDEEE

- normalised SPOT signal, Boehringer light units (BLU); mean over the file's lines of this peptide [1]: 235
- normalised SPOT signal, Boehringer light units (BLU); mean over the file's lines of this peptide [2]: 1040
B4: O75467 160-174 (peptide)
chain: RLTSPLRPPEGVRL

- normalised SPOT signal, Boehringer light units (BLU); mean over the file's lines of this peptide [1]: 54.8
- normalised SPOT signal, Boehringer light units (BLU); mean over the file's lines of this peptide [2]: 501
B17: BAC05290 145-159 (peptide)
chain: RPALPGRPPQVAEQ

- normalised SPOT signal, Boehringer light units (BLU); mean over the file's lines of this peptide [1]: 163
- normalised SPOT signal, Boehringer light units (BLU); mean over the file's lines of this peptide [2]: 5260
B22: O60292 677-691 (peptide)
chain: RPAKPHKPPGSMGL

- normalised SPOT signal, Boehringer light units (BLU); mean over the file's lines of this peptide [1]: 787
- normalised SPOT signal, Boehringer light units (BLU); mean over the file's lines of this peptide [2]: 38.8
B23: O60449 754-767 (peptide)
chain: AVKVFHRPWRRGWH

- normalised SPOT signal, Boehringer light units (BLU); mean over the file's lines of this peptide [1]: 37.2
- normalised SPOT signal, Boehringer light units (BLU); mean over the file's lines of this peptide [2]: 290
B27: P55001 106-119 (peptide)
chain: RLYSIHRPSKQSLN

- normalised SPOT signal, Boehringer light units (BLU); mean over the file's lines of this peptide [1]: 12
- normalised SPOT signal, Boehringer light units (BLU); mean over the file's lines of this peptide [2]: 67.7
B29: O75992 403-416 (peptide)
chain: RPPNLKRPEDYEAV

- normalised SPOT signal, Boehringer light units (BLU); mean over the file's lines of this peptide [1]: 197
- normalised SPOT signal, Boehringer light units (BLU); mean over the file's lines of this peptide [2]: 213
B31: P78314 398-411 (peptide)
chain: RPAVLPRPEKPQLP

- normalised SPOT signal, Boehringer light units (BLU); mean over the file's lines of this peptide [1]: 7260
- normalised SPOT signal, Boehringer light units (BLU); mean over the file's lines of this peptide [2]: 13600
B33: O43584 87-101 (peptide)
chain: RPPRPSRPPPPTPR

- normalised SPOT signal, Boehringer light units (BLU); mean over the file's lines of this peptide [1]: 352
- normalised SPOT signal, Boehringer light units (BLU); mean over the file's lines of this peptide [2]: 2930
B34: O94938 456-469 (peptide)
chain: RMLVPGRPVKDATP

- normalised SPOT signal, Boehringer light units (BLU); mean over the file's lines of this peptide [1]: 106
- normalised SPOT signal, Boehringer light units (BLU); mean over the file's lines of this peptide [2]: 256
B36: O94839 5-18 (peptide)
chain: AVAVPRRPRAGAER

- normalised SPOT signal, Boehringer light units (BLU); mean over the file's lines of this peptide [1]: 5400
- normalised SPOT signal, Boehringer light units (BLU); mean over the file's lines of this peptide [2]: 8560
B41: P52849 66-80 (peptide)
chain: RPPVPPRPPRPPET

- normalised SPOT signal, Boehringer light units (BLU); mean over the file's lines of this peptide [1]: 3660
- normalised SPOT signal, Boehringer light units (BLU); mean over the file's lines of this peptide [2]: 1530
B42: O43541 61-74 (peptide)
chain: RPVAPRRPRDAVGQ
